Reference: publication PMC4739419, “Mutations in the nucleotide binding and hydrolysis domains of Helicobacter pylori MutS2 lead to altered biochemical activities and inactivation of its in vivo function” (BMC Microbiology, 2016)

Tests used:
HpMutS2 = molecular target: T1, HpMutS2 (Helicobacter pylori, UniProt O25338); assay type: biochemical; conditions: for support of HpMutS2 ATPase activity by metal ion: metal ion 5 mM, ATP 100 μM, HpMutS2 45 nM, 37 °C, 30 min
T1 construct: (A) HpMutS2 (1-762): Mol. wt; (kDa): 87.8; His6 (C); made in house; host or cells: E. coli Rosetta (DE3) pLysS
Method: To delineate the characteristics of the ATPase activity of HpMutS2, we initially determined the metal ion requirement for ATP hydrolysis by HpMutS2. Purified HpMutS2 was incubated with excess of cold ATP (100 μM) with or without metal ions (5 mM each), and ATP hydrolysis monitored by thin layer chromatography using radiolabeled ATP [γ-^32P] as tracer.
Additional files 1: Figure S1. Multiple sequence alignment of MutS2 proteins from different H. pylori strains. Multiple sequence alignment of MutS2 proteins from different bacteria was carried out using Clustal Omega (http://www.ebi.ac.uk/Tools/msa/clustalo/). The protein sequences were obtained from NCBI protein database. The conserved nucleotide binding Walker-A motif and nucleotde hydrolysis Walker-B motifs are framed. The arrow indicates H. pylori MutS2 protein sequence. Figure S2. ATPase activity of HpMutS2 and variants. (A) Divalent metal ion requirement for ATPase activity of HpMutS2. Mentioned divalent metal ions (5 mM each) were incubated separately with cold ATP (100 μM) with (+) or without (−) HpMutS2 (45 nM). After incubation at 37 °C for 30 min the reactions were stopped by EDTA (50 mM) and the products were separated by TLC. ATP [γ-^32P] was used as tracer to monitor the product formation. (B) Time dependent hydrolysis of ATP by HpMutS2. A mixture of cold ATP (1 mM) and ATP [γ-^32P] was incubated in presence of HpMutS2 (45 nM) at 37 °C . The reaction aliquots were removed at indicated time points. The reactions were stopped by adding EDTA (50 mM) and products were separated by TLC. […] (C) Effect of HpSmr domain deletion on ATPase activity of HpMutS2. Increasing concentrations of proteins were incubated with a mixture of cold ATP (1 mM) and ATP [γ-^32P] at 37 °C for 30 min. The reactions were processed as described in (A). […] Figure S3. Limited proteolysis. Proteins (4 μM) were incubated with chymotrypsin (1.25 ng) for 30 min at 37 °C. The heat denaturation of proteins was performed by heating them at 95 °C for 10 min. […] Reactions were stopped by adding 1X protease inhibitor cocktail (Sigma), heat denatured and the products were separated on SDS-PAGE (10 %). Lane M: Molecular weight marker. Protein bands were detected by staining with Coomassie Brilliant Blue. […]. […] (A-E) Effect of nucleotides on DNA binding properties of HpMutS2. Electrophoretic mobility shift assays were performed with indicated DNA substrates (0.16 nM) without and with nucleotides (1 mM). After incubation for 30 min on ice, the reaction mixture was electrophoresed on polyacrylamide gel (8 %). Schematic representation of DNA substrates used are shown at the left side of autoradiographs. Figure S5. Chase experiments. A preformed ssDNA-HpMutS2 complex was chased with increasing concentrations of (A) ATP (0.25–5 mM) and (B) ssDNA (7.5–500 nM). (C) A preformed SC pUC19 DNA-HpMutS2 complex was chased with increasing concentrations of ATP (0.25–5 mM) . The reactions were performed at 37 °C and the reaction mixture was electrophoresed on PAGE (8 %) in case of (A and B) or an agarose gel (0.8 %) in case of (C). The amount of displaced DNA was estimated by assuming the DNA without protein as 100 %. Figure S6. Western blot. Equal numbers of exponentially growing H. pylori cells were lysed in Laemmli buffer (1X) by boiling at 95 °C for 5 min. The proteins were separated by SDS-PAGE (10 %). The HpMutS2 and mutants were detected by probing with polyclonal antibodies against HpMutS2. Table S1. Sequence of oligonucleotides used to prepare DNA substrates. Table S2. DNA substrates used in this study (* represents position of ^32P). (PDF 636 kb)

[1] = tested on: Nc1ncnc2c1ncn2[C@@H]1O[C@H](COP(=O)(O)OP(=O)(O)OP(=O)(O)O)[C@@H](O)[C@H]1O; assay: purified protein, by the assay type; conditions: pH 8.0; 37.0 °C
[2] = substrate: Nc1ncnc2c1ncn2[C@@H]1O[C@H](COP(=O)(O)OP(=O)(O)OP(=O)(O)O)[C@@H](O)[C@H]1O; assay: ATPase assay by thin layer chromatography with [γ-32P]ATP as tracer and cold ATP varied, 50 mM Tris pH 8.0, 50 mM NaCl, 1 mM DTT, 5 mM MgCl2, 37 °C, no DNA, Michaelis-Menten non-linear regression.; assay type: biochemical
[3] = molecular target: the molecule itself; assay: SEC; Superose-6 HR 10/30, buffer B (50 mM Tris pH 8.0, 100 mM NaCl), 0.3 ml/min, approximately 150 ug protein injected; mass from a plot of Ve/Vo versus log of molecular mass of standards

[Ni+2] [Ni^2+]
support of HpMutS2 ATPase activity by metal ion (HpMutS2): did not significantly support the ATPase activity

[Cu+2] [Cu^2+]
support of HpMutS2 ATPase activity by metal ion (HpMutS2): allowed the ATPase activity to various extents

[Ca+2] [Ca^2+]
support of HpMutS2 ATPase activity by metal ion (HpMutS2): allowed the ATPase activity to various extents

O=C(O)CN(CCN(CC(=O)O)CC(=O)O)CC(=O)O [EDTA]
effect on Mg2+ dependent ATPase activity (HpMutS2): inhibited

[Cd+2] [Cd ^2+]
support of HpMutS2 ATPase activity by metal ion (HpMutS2): allowed the ATPase activity to various extents

HpMutS2-E413A (Helicobacter pylori 26695; E413A)
Km [1]: 373.2 ± 188.6 µM | Vmax [1]: 0.19 µM/min | kcat [1]: 0.0703 ± 0.011 s⁻¹

[Co+2] [Co^2+]
support of HpMutS2 ATPase activity by metal ion (HpMutS2): allowed the ATPase activity to various extents

HpMutS2-G338R (Helicobacter pylori 26695; G338R)
Km [1]: 939.3 ± 489.2 µM | Vmax [1]: 0.64 µM/min | kcat [1]: 0.237 ± 0.0555 s⁻¹

[Mg+2] [Mg^2+]
support of HpMutS2 ATPase activity by metal ion (HpMutS2): supported a strong ATPase activity

[Mn+2] [Mn^2+]
support of HpMutS2 ATPase activity by metal ion (HpMutS2): allowed the ATPase activity to various extents

[Zn+2] [Zn^2+]
support of HpMutS2 ATPase activity by metal ion (HpMutS2): allowed the ATPase activity to various extents

B1: Helicobacter pylori MutS2 (enzyme, Helicobacter pylori strain 26695, UniProt O25338 1-762, looked up)
chain: MSDAPKRSLNPTLMMNNNNTPPKPLEESLDLKEFIALFKTFFAKERDTIALENDLKQTFTYLNEVDAIGLPTPKSVKESDLIIIKLTKLGTLHLDEIFEIVKRLHYIVVLQNAFKTFTHLKFHERLNAIVLPPFFNDLIALFDDEGKIKQGANATLDALNESLNRLKKESVKIIHHYARSKELAPYLVDTQSHLKHGYECLLLKSGFSGAIKGVVLERSANGYFYLLPESAQKIAQKIAQIGNEIDCCIVEMCQTLSHSLQKHLLFLKFLFKEFDFLDSLQARLNFAKAYNLEFVMPSFTQKKMILENFSHPILKEPKPLNLKFEKSMLAVTGVNAGGKTMLLKSLLSAAFLSKHLIPMKINAHHSIIPYFKEIHAIINDPQNSANNISTFAGRMKQFSALLSKENMLLGVDEIELGTDADEASSLYKTLLEKLLKQNNQIIITTHHKRLSVLMAENKEVELLAALYDEEKERPTYTFLKGVIGKSYAFETALRYGVPHFLIEKAKTFYGEDKEKLNVLIENSSALERELKQKNEHLENALKEQEYLKNAWLLEMEKQKEIFHNKKLELEKSYQQALNILKSEVASKDTSSMHKEIHKASEILSKHKTNQEIPQIITNFQANEKARYKNESVLIVQILDKGYYWIETELGMRLKAHGSLLKKIQKPPKNKFKPPKTTIPKPKEASLRLDLRGQRSEEALDLLDAFLNDALLGGFEEVLICHGKGSGILEKFVKEFLKNHPKVVSFSDAPINLGGSGVKIVKL
notes: MutS2 of Helicobacter pylori strain 26695, full length, cloned in pET28b; Tetramer by gel filtration; a small fraction elutes near the void volume as multimers; also called HpMutS2; wild-type HpMutS2
Km [2]: 412.1 ± 83.43 µM | Vmax [2]: 1.88 µM/min | kcat [2]: 0.696 ± 0.048 s⁻¹ | stoichiometry N [3]: 4
